The results in this text go back to paper doi:10.1101/2021.02.26.432832.

This data set addresses T1, Ioc4 PWWP domain (Saccharomyces cerevisiae) (UniProt Q04213).
T1 sequence: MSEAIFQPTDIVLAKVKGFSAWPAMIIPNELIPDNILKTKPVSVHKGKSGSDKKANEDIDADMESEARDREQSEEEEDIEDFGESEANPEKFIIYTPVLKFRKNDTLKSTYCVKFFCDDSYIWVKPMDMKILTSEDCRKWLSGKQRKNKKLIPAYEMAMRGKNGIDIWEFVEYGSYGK
As to the kind of experiment: EMSA. Conditions: H3K36me3; H3 tail 1-44 ligated to H3T45C; Xenopus laevis histones.

For NCP H3K36me3, the binding signal (fold higher affinity vs dsDNA) stood at 6.
